Where no end group is shown, it is not given here.
Key:
Hdm2 210-304 [1] = target: T1, Hdm2 210-304 (Homo sapiens, UniProt Q00987); assay: Surface plasmon resonance: Arf library peptides binding to immobilized His-tagged Hdm2 210-304; conditions: 15 amino acid peptides; maximal SPR signal after binding for 10 minutes
T1 construct: poly-His (thrombin cleavable, pET28a) (cleaved yes); made in house; host or cells: E. coli BL21(DE3)
Method: Surface Plasmon Resonance. Binding studies were performed using a Biacore 3000 surface plasmon resonance (SPR) instrument (Biacore, Inc.). A Tetra-His™ Antibody (Qiagen, Inc.; Cat. #34670) was covalently attached to a carboxymethylated gold surface (C-1 chip; Biacore, Inc.). The carboxymethyl groups on the surface were activated with N-ethyl-N′-(3-dimethylaminopropyl) carbodiimide (EDC) and N-hydroxysuccinimide (NHS) and the antibody was attached at pH 7.4 in 20 mM sodium phosphate buffer, 150 mM NaCl (PBS). Reactive sites remaining on the surface were blocked by reaction with ethanolamine. […] Binding was measured by flowing the non-His-tagged analyte through the reference and ligand-containing flow cells in sequence. […] Changes in the SPR response due to solvent differences and the injection process were monitored by injection of HBS-N buffer alone. […]
Two libraries of peptides 15 amino acids in length were synthesized based on the sequence of exon 1β of mouse p19^Arf and the entire sequence of human p14^Arf. […] The ability of these peptides to bind Hdm2 fragments was determined using the surface plasmon resonance (SPR) technique with a Biacore 3000 instrument. […] Relative binding affinity was judged on the basis of the maximal SPR signal detected after binding for 10 minutes.

Hdm2 210-275 = target: T2, Hdm2 210-275 (Homo sapiens, UniProt Q00987); assay: CD-based binding assay, induction of β-strand secondary structure with Hdm2 210-275
T2 construct: poly-His (thrombin cleavable, pET28a) (cleaved yes); made in house; host or cells: E. coli BL21(DE3)
T2 sequence (Q00987 210-275): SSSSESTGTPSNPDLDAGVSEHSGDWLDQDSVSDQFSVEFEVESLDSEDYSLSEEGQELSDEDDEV
Method: (§1) Circular Dichroism. Spectra were recorded at 25° C. using an Aviv Model 62A DS circular dichroism spectropolarimeter (Aviv Instruments, Inc.) equipped with a thermoelectric temperature control unit. All samples were prepared in 10 mM Tris-HCl, pH 7.0 at 0.02-0.2 mM as determined by amino acid analysis. Spectra were recorded using 1 mm quartz cuvettes and reported spectra are the average of 10 scans over the range […]. Melting experiments were recorded in 10 mm quartz cuvettes with active stirring. The signal at 216 nm (β strand minimum) was used to monitor structural changes and the signal was averaged over 15 sec. The sample temperature was increased in 1° C. steps.
β-strand secondary structure forms when Arf and Hdm2 interact. […] This structural transition is induced when mArfN37 is added to an Hdm2 fragment and when an Hdm2 fragment is added to mArfN37. […] In contrast, the uncomplexed species elute at times consistent with monodisperse, conformationally extended polypeptides. Second, NMR resonances for ^15N-mArfN37 or ^15N-Hdm2 210-304 (and ^15N-Hdm2 210-275) are broadened beyond detection when an unlabeled form of the appropriate binding partner is added to the solution. At mArfN37:Hdm2 210-304 (or mArfN37:Hdm2 210-275) molar ratios that produce maximal β-strand secondary structure based on ellipticity at 200 nm using CD, resonances cannot be observed for the isotope-labeled component of Arf/Hdm2 mixtures. Further, the NMR spectra are consistent with slow exchange between the free and bound states.
Characterization of Arf Hdm2 assemblies. As discussed above, the addition of mArfN37 to Hdm2 210-304 results in the formation of supramolecular assemblies comprised of β-strands. Stepwise addition of sub-stoichiometric amounts of mArfN37 to Hdm2 210-304 increased β-strand secondary structure content as judged by the change in ellipticity at 200 nm using CD. […] The binding of mArfN37 to Hdm2 210-304, as monitored in this way, is saturable. Similar results were obtained when mArfN37 was mixed with the shorter fragment of Hdm2, Hdm2 210-275. Further, saturable binding is also observed when the Hdm2 fragments were added to an excess of mArfN37. These findings indicate that there are a limited number of binding sites for mArfN37 within Hdm2 210-304 and that discreet structures (containing β-strands) form when mArfN37 and Hdm2 210-304 (or 210-275) are mixed. […] Similar behavior is observed when mArfN37 binds Hdm2 210-275.

Hdm2 210-304 [2] = target: T1, Hdm2 210-304; assay: CD-based binding assay, induction of β-strand secondary structure with Hdm2 210-304
Method: as §1, with “C. steps. […]” for “C. steps.”
Characterization of Arf Hdm2 assemblies. […] The binding of mArfN37 to Hdm2 210-304, as monitored in this way, is saturable. […]
To investigate the roles of individual Arf motifs (A1 and A2) and Arf-binding segments of Hdm2 (H1 and H2) in the interactions between Arf and Hdm2 the binding of peptides containing these small segments (A1, A2, H1, or H2) to larger protein fragments of the corresponding binding partner (mArfN37 or Hdm2 210-304) were monitored using the CD-based binding assay. […] Peptides from the Hdm2 library that were positive for mArfN37 binding on the basis of SPR (i.e. those within H1 and H2) were mixed with mArfN37 and binding was monitored in the same manner. […]

T1 sequence (Q00987 210-304): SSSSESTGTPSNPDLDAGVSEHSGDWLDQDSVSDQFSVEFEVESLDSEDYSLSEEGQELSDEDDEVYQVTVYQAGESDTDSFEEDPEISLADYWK

Row | Substance | binding of Arf library peptides to Hdm2 210-304 (SPR) (Hdm2 210-304 [1]) | induction of β-strand secondary structure/assembly when mixed with Hdm2 210-275 (CD) (Hdm2 210-275) | induction of β-strand secondary structure when mixed with Hdm2 210-304 (CD) (Hdm2 210-304 [2])
1 | mouse Arf peptide residues 31-45: mouse p19^Arf library 15-mer spanning residues 31-45, contains the RRPR nucleolar localization signal (RRPRTASCALAFVNM; UniProt Q64364 31-45, looked up, fragment) | bind Hdm2 210-304 | – | –
2 | mArfN37: peptide containing the N-terminal 37 amino acids of mouse Arf (p19^Arf residues 1-37, SEQ ID NO:16) (MGRRFLVTVRIQRAGRPLQERVFLVKFVRSRRPRTAS; also: His tag; listed as Mus musculus) | – | transition from random conformations to β-strand secondary structure | transition from random conformations to β-strand secondary structure
3 | human Arf peptide residues 86-100: human p14^Arf library 15-mer spanning residues 86-100, contains the NoLS RRPR (LRRPRHSHPTRARRC; UniProt Q8N726 86-100, looked up, fragment) | binds Hdm2 210-304 | – | –
